Data published in US20220259593A1, “CONTROL OF MAMMALIAN GENE DOSAGE USING CRISPR” (The Regents of the University of California, priority 2019, published 2022).

B1: cr112 (nucleic acid)
guide: GTTTAAGAGCTAAGCTGGAAACAGCATAGCAAGTTTAAATAAAGTTAATCTGTTATCAATTTGAAAAAATGGCACCGAGTCGGTGCT
modifications: listed as DNA, chemistry not fully specified
B2: cr197 (nucleic acid)
guide: GTTTAAGAGCTAAGCTGGAAACAGCATAGCAAGTTTAAATAATGCTAGTCAGTTATCAACTGGAAACAGTGGCACCGAGTCGGTGCT
modifications: listed as DNA, chemistry not fully specified
B3: cr714 (nucleic acid)
guide: GTTTAAGAGCTAAGCTGGAAACAGCATAGCAAGCTTAAATAAGGCTAGTCCGTTATCAAATTGAAAAATTGGCACCGAGTCGGTGCT
modifications: listed as DNA, chemistry not fully specified
B4: cr045 (nucleic acid)
guide: TTTTATGAGCTAAGCTGGAAACAGCATAGCAAGTTTAAATAAGGCTAGTCCGTTATCAACTTGAAAAAGTGGCACCGAGTCGGTGCT
modifications: listed as DNA, chemistry not fully specified
B5: cr061 (nucleic acid)
guide: GTTCAACAGCTAAGCTGGAAACAGCATAGCAAGTTTAAATAAGGCTAGTCCGTTATCAACTTGAAAAAGTGGCACCGAGTCGGTGCT
modifications: listed as DNA, chemistry not fully specified
B6: cr928 (nucleic acid)
guide: GTTTAAGAGCTAAGCTGGAAACAGCATAGCTAGTTTAAATGAGGCTAGTCCGTAATCAACTTGAAAAAGTGGCACCGAGTCGGTGCT
modifications: listed as DNA, chemistry not fully specified
B7: cr514 (nucleic acid)
guide: GTTTAAGAGCTAAGCTGGAAACAGCATAGCAACTTTAAATAAGGCTAGTCCGTTATCAACTTGAAAAAGTGGGACCGAGTCGGTCCT
modifications: listed as DNA, chemistry not fully specified
B8: cr082 (nucleic acid)
guide: CGTTAAGAGCTAAGCTGGAAACAGCATAGCAAGTTTAAATAAGGCTAGTCCGTTATCAACTTGAAAAAGTGGCACCGAGTCGGTGCT
modifications: listed as DNA, chemistry not fully specified
B9: cr741 (nucleic acid)
guide: GTTTAAGAGCTAAGCTGGAAACAGCATGGCAAGTTTAAATACGGCTAGACCGTTATCAACTTGAAAAAGTGGCACCGAGTCGGTGCT
modifications: listed as DNA, chemistry not fully specified
B10: cr588 (nucleic acid)
guide: GTTTAAGAGCTAAGCTGGAAACAGCATAGCAACTTTAAATAAGGCTAGTCCGTTATCAACTTGAAAAAGTGGTACCGAGTCGGTACT
modifications: listed as DNA, chemistry not fully specified
B11: cr762 (nucleic acid)
guide: GTTTAAGAGCTAAGCTGGAAACAGCATAGCACGTTTAAATAAGGCTAGTCCTTTATCAACTTGAAAAAGTGGCACCGAGTCGGTGCT
modifications: listed as DNA, chemistry not fully specified
B12: cr325 (nucleic acid)
guide: GTTTAAGAGCTAAGCTGGAAACAGCATAGCAACTTTAAATAAGGCTAGTCCGTTATCAGCTTGAAAAAGCGGCACCGAGTCGGTGCT
modifications: listed as DNA, chemistry not fully specified
B13: cr985 (nucleic acid)
guide: GTTTAAGAGCTAAGCTGGAAACAGCATAGCAAGTTTAAATAAGGCTAGTCCTTTATCAACTTGAAAAAGTGGCACCGAGTCGGTGCT
modifications: listed as DNA, chemistry not fully specified
B14: cr422 (nucleic acid)
guide: GTTTAAGAGCTAAGCTGGAAACAGCATAGCAAGTTTAAATAAGGCTAGTCCGTTATCAACTTGAAAAAGTGGTACCGAGTCGTTCCT
modifications: listed as DNA, chemistry not fully specified
B15: cr467 (nucleic acid)
guide: GTTTAAGAGCTAAGCTGGAAACAGCATAGCAAGCTTAAATAAGGCTAGTCCGTTATCAATTTGAAAAAATGGCACCGAGTCGGTGCT
modifications: listed as DNA, chemistry not fully specified
B16: cr298 (nucleic acid)
guide: GTTTAAGAGCTAAGCTGGAAACAGCATAGCAAGTTTAAATAAGGCTAGTCCTTTATCAACTTGAAAAAGTGGCACCGACTCGGTGCT
modifications: listed as DNA, chemistry not fully specified
B17: cr066 (nucleic acid)
guide: ATTCAAGAGCTAAGCTGGAAACAGCATAGCAAGTTTAAATAAGGCTAGTCCGTTATCAACTTGAAAAAGTGGCACCGAGTCGGTGCT
modifications: listed as DNA, chemistry not fully specified
B18: cr038 (nucleic acid)
guide: GTTTGCGAGCTAAGCTGGAAACAGCATAGCAAGTTTAAATAAGGCTAGTCCGTTATCAACTTGAAAAAGTGGCACCGAGTCGGTGCT
modifications: listed as DNA, chemistry not fully specified
B19: cr438 (nucleic acid)
guide: GTTTAAGAGCTAAGCTGGAAACAGCATAGCCAGTTTAAATACGGCTAGTCCGTTGTCAACTTGAAAAAGTGGCACCGAGTCGGTGCT
modifications: listed as DNA, chemistry not fully specified
B20: cr193 (nucleic acid)
guide: GTTTAAGAGCTAAGCTGGAAACAGCATAGCAAGTTTAAATAAAGCTAGTCTGTTATCAATTTGAAAAAATGCCACCGAGTCGGTGGT
modifications: listed as DNA, chemistry not fully specified
B21: cr582 (nucleic acid)
guide: GTTTAAGAGCTAAGCTGGAAACAGCATAGCAAGTTTAAATACGGCTTGTCCGTTATCAACTTCAAAAAGTGGCACCGAGTCGGTGCT
modifications: listed as DNA, chemistry not fully specified
B22: cr419 (nucleic acid)
guide: GTTTAAGAGCTAAGCTGGAAACAGCATAGCAACTTTAAATAAGGCTAGTCCGTTATCAACTTGAAAAAGTGGAACCGAGTCGGTTCT
modifications: listed as DNA, chemistry not fully specified
B23: cr050 (nucleic acid)
guide: CTTTAGGAGCTAAGCTGGAAACAGCATAGCAAGTTTAAATAAGGCTAGTCCGTTATCAACTTGAAAAAGTGGCACCGAGTCGGTGCT
modifications: listed as DNA, chemistry not fully specified
B24: cr739 (nucleic acid)
guide: GTTTAAGAGCTAAGCTGGAAACAGCATAGCAACTTTAAATAAGGCTAGTCCGTTATCAACGTGAAAACGTGGCACCGAGTCGGTGCT
modifications: listed as DNA, chemistry not fully specified
B25: cr764 (nucleic acid)
guide: GTTTAAGAGCTAAGCTGGAAACAGCATAGCAACTTTAAATAAGGCTAGTCCGTTATCAACTTGAAAAAGTGGCACCGAGTCGGTGCT
modifications: listed as DNA, chemistry not fully specified
B26: cr115 (nucleic acid)
guide: GTTTAAGAGCTAAGCTGGAAACAGCATAGCAAGTTTAAATAATGCTAGTCAGTTATCAACTCGAAAGAGTGGCACCGAGTCGGTGCT
modifications: listed as DNA, chemistry not fully specified
B27: cr791 (nucleic acid)
guide: GTTTAAGAGCTAAGCTGGAAACAGCATAGCAAGTTTAAATAAAGCTAGTCTGTTATCAACTTGAAAAAGTGGCACCCAGTGGGTGCT
modifications: listed as DNA, chemistry not fully specified
B28: cr776 (nucleic acid)
guide: GTTTAAGAGCTAAGCTGGAAACAGCATAGCAAGTTTAAATAAGGCTAGTCCGTTATCATCTAGAAATAGAGGCACCGAGTCGGTGCT
modifications: listed as DNA, chemistry not fully specified
B29: cr465 (nucleic acid)
guide: GTTTAAGAGCTAAGCTGGAAACAGCATAGCAAGCTTAAATAAGGATATTCCGTTATCAACTTGAAAAAGTGGCACCGAGTCGGTGCT
modifications: listed as DNA, chemistry not fully specified
B30: cr097 (nucleic acid)
guide: GCTTACGAGCTAAGCTGGAAACAGCATAGCAAGTTTAAATAAGGCTAGTCCGTTATCAACTTGAAAAAGTGGCACCGAGTCGGTGCT
modifications: listed as DNA, chemistry not fully specified
B31: cr483 (nucleic acid)
guide: GTTTAAGAGCTAAGCTGGAAACAGCATAGCAAGTTTAAATAAGGCTAGTCCGTTATCAACTAGAAATAGTGGCGTCGAGTCGACGCT
modifications: listed as DNA, chemistry not fully specified

system: K562 CRISPRi cells; assay: Constant region variant library pooled growth screen, K562; format: cell-based, human; conditions: sgRNA constant region variants; activity relative to the original, un-modified constant region cr995
In short: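 Library of sgRNA constant-region variants, each paired with 36 targeting sequences (essential-gene and non-targeting), transduced in duplicate into K562 CRISPRi cells, puromycin-selected and grown 4–8 days at >2000× coverage. Activity per variant is its growth phenotype normalised to the same targeting sequence with unmodified constant region.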

In order of falling Mean relative activity:
1. B28  1.037
2. B31  1.037
3. B1  0.0933
4. B3  0.09294
5. B12  0.09143
6. B17  0.09115
7. B11  0.0885
8. B24  0.08764
9. B27  0.07648
10. B13  0.07562
11. B10  0.07507
12. B8  0.0741
13. B18  0.07321
14. B21  0.07315
15. B19  0.06886
16. B30  0.06585
17. B15  0.06565
18. B2  0.06436
19. B9  0.06347
20. B16  0.06335
21. B20  0.06081
22. B7  0.05776
23. B5  0.05691
24. B22  0.05682
25. B6  0.05583
26. B26  0.05506
27. B14  0.0493
28. B29  0.04864
29. B25  0.04863
30. B4  0.04839
31. B23  0.04785
